According to paper PMC9017566:

Biological target: hexon protein of recombinant chimpanzee adenovirus C68 (AdC68), free hexon trimer (AEX-HPLC "impurity" peak) (chimpanzee adenovirus C68)
Assay: native MS; native SEC-HPLC/MS of the AEX-HPLC "impurity" fraction; BEH SEC 200Å column, isocratic 40 mM ammonium formate, 25°C; Orbitrap EMR, gentle source parameters to keep non-covalent complexes assembled

hexon protein of recombinant chimpanzee adenovirus C68 (AdC68), free hexon trimer (AEX-HPLC "impurity" peak) (natural protein)
stoichiometry N: 3
